The results in this text go back to patent publication US7998940B2, “Aptamers to von Willebrand factor and their use as thrombotic disease therapeutics” (Archemix Corp., priority 2004, dated 2011).

Series [1] deals with T1, human vWF A1 domain (SEQ ID NO 5) (Homo sapiens, UniProt P04275, T1381A). Kind of series: dot blot KD determination, human vWF A1 domain. The note with it: for Human vWF A1 domain KD: DNA 1 minimers, competition dot blot, 10 nM protein; for Kd: read-out: human A1 KD, rRfY aptamers, 8 point titration of human vWF A1 domain.
T1 sequence (P04275 with tags, fused parts or gaps T1381A): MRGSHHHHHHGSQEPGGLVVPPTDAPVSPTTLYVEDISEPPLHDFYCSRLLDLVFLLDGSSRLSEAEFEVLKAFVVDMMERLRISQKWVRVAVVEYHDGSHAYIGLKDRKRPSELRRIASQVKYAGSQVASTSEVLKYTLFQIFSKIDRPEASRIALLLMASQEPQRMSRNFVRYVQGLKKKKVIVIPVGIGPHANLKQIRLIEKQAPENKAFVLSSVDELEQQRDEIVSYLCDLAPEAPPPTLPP
The test system of series [2] is rabbit vWF A1 domain (SEQ ID NO 6). Kind of series: 3-point dot blot screen, rabbit vWF A1 domain. The class given is binding. The conditions noted are these: for Screen Rabbit/No Protein: 3-point dot blot screen, 20 nM rabbit vWF A1 domain, ratio of fraction of aptamer bound with target protein to fraction bound without protein; for Screen- Rabbit/No Protein: rRfY aptamers, 100 nM rabbit vWF A1 domain, ratio of fraction bound with target to without. In a few lines:
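Rabbit vWF A1 domain binding was screened by dot blot using three conditions: no target protein, human vWF, and rabbit vWF A1 domain at 100 nM (20 nM in the screen run twice). Radiolabeled aptamer bound to nitrocellulose was quantified, and results are expressed as the ratio of bound fraction with protein to bound fraction without protein.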

Series [3] concerns full length human vWF. Kind of series: 3-point dot blot screen, full length human vWF. Format: binding. The conditions noted are these: 20 nM full length human vWF, ratio of fraction of aptamer bound with target protein to fraction bound without protein. The text has this:
When a significant positive ratio of binding of DNA in the presence of human or rabbit vWF A1 domain versus in the absence of protein was seen, the pools were cloned using the TOPO TA cloning kit (Invitrogen Cat. #45-0641, Carlsbad, Calif.) according to the manufacturer's instructions. Round 7 and 11 pool templates were cloned and sequenced (218 total sequences), producing 146 unique clones within 12 sequence families of which sequences from six families show vWF target binding activity. All unique clones were assayed twice in a 3-point dot blot screen (no protein target control, 20 nM full length human vWF (Calbiochem Cat. #681300, La Jolla, Calif.), or 20 nM rabbit vWF A1 domain. The data is presented in the third and fourth columns of Table 17 below as the ratio of the fraction of the aptamer bound to the nitrocellulose in the presence of the target protein to the fraction of aptamer bound in the absence of the target protein.

For series [4], the target named is T1, human vWF A1 domain (SEQ ID NO 5). Kind of series: 3-point dot blot screen, human vWF A1 domain. The note with it: rRfY aptamers; 100 nM human vWF A1 domain; ratio of fraction bound with target to fraction bound without target. The class given is binding. The gist of the method: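 Values are ratios of aptamer fraction retained on nitrocellulose with 100 nM vWF A1 domain (human or rabbit) versus a no-protein control. Unique clones from rounds 9 and 12 pools were transcribed, desalted and 5'-32P labeled before this three-point dot blot screen.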

For series [5], the system named is full length human vWF binding to lyophilized platelets. Briefly: Full length human von Willebrand Factor platelet binding assay (FACS). The class given is cell-based. The conditions noted are these: 5 nM full length human vWF, lyophilized platelets, botrocetin; both bounds in nM. On the procedure: The amount of vWF bound to fixed platelets can be measured with an antibody to vWF. The fluorescence signal from bound antibody incubated with a fluorescein conjugated secondary antibody is then detected and quantified by flow cytometry. The ability of an aptamer of the invention to block vWF binding to platelets is correlated with a reduction in fluorescence signal.
Aptamer potency to block human vWF binding to lyophilized platelets was assessed by flow cytometric analysis. Titrations of aptamers (0 nM, 0.1 nM to 1000 nM) were pre-incubated briefly with 5 nM of full length human vWF in FACS buffer (PBS plus 0.5% bovine serum albumin) at room temperature in a volume of 50 uL. Another 50 uL containing 5 uL of lyophilized platelets plus 1 uL of 0.1 U/uL of botrocetin in FACS buffer was added to aptamer/vWF. This reaction was allowed to proceed for 15 minutes at 37 degrees C. after which 200 uL of FACS buffer was added. Platelets were collected by a 6 minute spin at 1470 RCF and the supernatant was discarded. The pellets were resuspended in 100 uL of FACS buffer containing a 1:100 dilution of anti-vWF antibody and were incubated at room temperature for 30 minutes. After dilution with 200 uL of FACS buffer, the platelets were spun at 1470 RCF for 6 minutes and the supernatant was discarded. The pellets were resuspended in a 1:100 solution of anti-IgG2a-FITC antibody and were incubated in the dark for 30 minutes at room temperature. The entire 100 uL was diluted into 200 uL of FACS buffer and analyzed immediately by flow cytometric analysis in the FACSCAN. Artifactual data from contaminating debris was eliminated from the analysis by drawing a gate around the population of single and aggregated platelets. Mean fluorescent intensity (“MFI”) readings were quantified for each sample analyzed by flow cytometry. Background MFI was subtracted from all data points. Percent inhibition was reported by calculating the percent value of binding of full length human vWF to platelets in the presence of aptamer at a given concentration relative to binding in the absence of any aptamer (see FIG. 7). IC50 values were determined by fitting the percent inhibition of vWF binding to platelets as a function of aptamer concentration to the equation: % inhibition=% inhibitionmax/(1+IC50/aptamer conc.)

Oligonucleotides are written 5' to 3', each unit as a sugar letter and its base; * is a phosphorothioate linkage, no mark a phosphodiester; rarer units and linkages stand in square brackets, end groups in braces. Plain capitals give the bases only. r = 2'-OH (RNA); f = 2'-fluoro

rabbit vWF A1 domain (SEQ ID NO 6), sequence (as listed by the source): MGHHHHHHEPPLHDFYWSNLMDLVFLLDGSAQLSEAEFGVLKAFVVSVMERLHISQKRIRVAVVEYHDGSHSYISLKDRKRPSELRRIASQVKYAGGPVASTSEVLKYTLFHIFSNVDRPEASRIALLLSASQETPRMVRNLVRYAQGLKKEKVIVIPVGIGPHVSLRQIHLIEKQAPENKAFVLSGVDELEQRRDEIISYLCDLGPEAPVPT

On to “CGATCTGACTAGCGGAATGAGAATGCTGGTGGATCG (DNA, backbone not given here) [SEQ ID NO 206]”, for which, in series [1], the “Human vWF A1 domain KD” value is “No binding”.

Turning to “GATCTGACTAGCGCAATGAGGATGCdTGATGGATTGCTCAGGTC (GATCTGACTAGCGCAATGAGGATGCDTGATGGATTGCTCAGGTC; DNA, backbone and the base at N not given here) [SEQ ID NO 207]”, the “Human vWF A1 domain KD” value in series [1] is “No binding”.

B1: AMX237.F10: DNA SELEX 2 aptamer clone (nucleic acid)
DNA: CTACCTACGATCTGACTAGCGTGCAGTGCCCATTCCAGGCCGTGCGGTATCCTCCGTCACGCTTACTCTCATGTAGTTCC
modifications: DNA, backbone not given here
notes: DNA SELEX 2 aptamer clone
B1: in series [2], the “Screen Rabbit/No Protein” value was found to be 2.90. Further, in series [3], the “Screen- Human/No Protein” value came out at 2.90.

B2: AMX237.C5: DNA SELEX 2 aptamer clone (nucleic acid)
DNA: CTACCTACGATCTGACTAGCGTGCAGTGCCTATCTCAGGCCGTGCGGTATCCTCCGTCACGCTTACTCTCATGTAGTTCC
modifications: DNA, backbone not given here
notes: DNA SELEX 2 aptamer clone
B2: the “Screen Rabbit/No Protein” value in series [2] was 2.36. The “Screen- Human/No Protein” value in series [3] is reported as 2.55.

B3: AMX236.H2: DNA SELEX 2 aptamer clone (nucleic acid)
chain: CTACCTACGATCTGACTAGCGTGCAGTGCCTATCCCAGGCCGTGCGGTAGCCTCCGTCACGCTTACTCTCATGTAGTTCC
modifications: DNA, backbone not given here
notes: DNA SELEX 2 aptamer clone
As to B3, the “Screen Rabbit/No Protein” value in series [2] was determined as 2.06. The “Screen- Human/No Protein” value in series [3] was determined as 2.12.

B4: AMX198.C10: rRfY aptamer clone (nucleic acid)
chain: rGrGrArGfCrGfCrAfCfUfCrArGfCfCrAfCfUrGrGfUfCfCfUfUrArGfCfUrArGfUfUrGfUrAfCfUrArGfCrGrAfCrGfCrGfUfUfCrArGrGfUrGrGfUfUfUfCrGrAfCfCfUfCfUfCfUrGfCfUrArGfC
For the molecule B4, in series [2], the “Screen- Rabbit/No Protein” value amounted to 3.39. The Kd in series [1] came out at 555 nM. The “Screen- Human/No Protein” value in series [4] is 1.40.

B5: AMX238.D8: DNA SELEX 2 aptamer clone (nucleic acid)
DNA: CTACCTACGATCTGACTAGCTCCAGTGTTTTATCCAACAACCGTGCGGTGCCTCCGTGAGCTTACTCTCATGTAGTTCC
modifications: DNA, backbone not given here
notes: DNA SELEX 2 aptamer clone
Turning to B5, the “Screen Rabbit/No Protein” value in series [2] is 1.97. Moreover, the “Screen- Human/No Protein” value in series [3] is on record as 2.02.

B6: AMX238.E7: DNA SELEX 2 aptamer clone (nucleic acid)
DNA: CTACCTACGATCTGACTAGCGTGCAGTGCCTATTTTAGGCCGTGCGGTGCCTCCGTCACGCTTACTCTCATGTAGTTCC
modifications: DNA, backbone not given here
notes: DNA SELEX 2 aptamer clone
Regarding B6, the “Screen Rabbit/No Protein” value in series [2] is reported as 2.83. For the same molecule, the “Screen- Human/No Protein” value in series [3] was found to be 3.02.

B7: AMX238.F3: DNA SELEX 2 aptamer clone (nucleic acid)
DNA: CTACCTACGATCTGACTAGCGTGCAGTGCCTATTTTAGGTCGTGCGGGGCCTCCGTCACGCTTACTCTCATGTAGTTCC
modifications: DNA, backbone not given here
notes: DNA SELEX 2 aptamer clone
Regarding B7, the “Screen Rabbit/No Protein” value in series [2] was found to be 2.72. The “Screen- Human/No Protein” value in series [3] stood at 2.83.

B8: AMX237.C11: DNA SELEX 2 aptamer clone (nucleic acid)
DNA: CTACCTACGATCTGACTAGCGTGCAGTGCCTATTCTAGGCCGTGCGGTGCCTCCGTCATGCTTACTCTCATGTAGTTCC
modifications: DNA, backbone not given here
notes: DNA SELEX 2 aptamer clone
Regarding B8, in series [2], the “Screen Rabbit/No Protein” value is recorded as 1.95. The “Screen- Human/No Protein” value in series [3] is given as 2.04.

B9: AMX238.F2: DNA SELEX 2 aptamer clone (nucleic acid)
DNA: CTACCTACGATCTGACTAGCATGCAGTGCCCATTCTAGGCCGTGCGGTGCCTCCGTCATGCTTACTCTCATGTAGTTCC
modifications: DNA, backbone not given here
notes: DNA SELEX 2 aptamer clone
Take B9: the “Screen Rabbit/No Protein” value in series [2] was 2.76. In series [3], the “Screen- Human/No Protein” value worked out at 2.84.

B10: AMX238.G6: DNA SELEX 2 aptamer clone (nucleic acid)
DNA: CTACCTACGATCTGACTAGCTCCAGTGTTTTATCCAATAACCGTGCGGGGCCTCCGTGATGCTTACTCTCATGTAGTTCC
modifications: DNA, backbone not given here
notes: DNA SELEX 2 aptamer clone
As to B10, in series [2], the “Screen Rabbit/No Protein” value was found to be 1.22. The “Screen- Human/No Protein” value in series [3] is recorded as 1.25.

B11: AMX236.F8: DNA SELEX 2 aptamer clone (nucleic acid)
chain: CTACCTACGATCTGACTAGCTCCAGTGTTTTATCCAATAACCGTGCGGTGCCTCCGTGATGCTTACTCTCATGTAGTTCC
modifications: DNA, backbone not given here
notes: DNA SELEX 2 aptamer clone
As for B11, in series [2], the “Screen Rabbit/No Protein” value is on record as 1.13. Moreover, the “Screen- Human/No Protein” value in series [3] is 1.14.

B12: AMX198.C6: rRfY aptamer clone (nucleic acid)
chain: rGrGrArGfCrGfCrAfCfUfCrArGfCfCrAfCrGrGfUrGrGfUfCrArGfUfCrArGfUrGrAfUrAfUrGrAfUfUrArArGfUfUfCrArGfCfUrGfUrGrGfCfUrGfUfUfUfCrGrAfCfCfUfCfUfCfUrGfCfUrArGfC
As for B12, in series [2], the “Screen- Rabbit/No Protein” value is 4.62. Further, the Kd in series [1] stood at 249 nM. For the same molecule, the “Screen- Human/No Protein” value in series [4] is given as 3.03.

B13: AMX237.E10: DNA SELEX 2 aptamer clone (nucleic acid)
DNA: CTACCTACGATCTGACTAGCGGAATGAGAATGCTGGTGGATTGCTCAGGTCTGCTGGCTGCTTACTCTCATGTAGTTCC
modifications: DNA, backbone and methylation of C not given here
notes: DNA SELEX 2 aptamer clone
For the molecule B13, in series [2], the “Screen Rabbit/No Protein” value worked out at 6.04. Besides, the “Screen- Human/No Protein” value in series [3] was determined as 1.12. In addition, in series [5], the “Inhibition of full length hVWF binding in FACS assay, IC50 range” value is “no activity”.

B14: AMX237.F9: DNA SELEX 2 aptamer clone (nucleic acid)
DNA: CTACCTACGATCTGACTAGCTTGGTAGCGATTCTGTGGAGCTGCGGTTTGGTCGACGTCAGCTTACTCTCATGTAGTTCC
modifications: DNA, backbone not given here
notes: DNA SELEX 2 aptamer clone
Consider B14, for which the “Screen Rabbit/No Protein” value in series [2] came to 2.31. Further, the “Screen- Human/No Protein” value in series [3] stood at 2.21.

B15: AMX237.F12: DNA SELEX 2 aptamer clone (nucleic acid)
DNA: CTACCTACGATCTGACTAGCTTGGTAGCGATTTTGTGGAGCTGCGGTTTGGTCGACGTCAGCTTACTCTCATGTAGTTCC
modifications: DNA, backbone not given here
notes: DNA SELEX 2 aptamer clone
B15: in series [2], the “Screen Rabbit/No Protein” value is recorded as 2.08. The “Screen- Human/No Protein” value in series [3] is recorded as 1.95.

B16: AMX236.B8: DNA SELEX 2 aptamer clone (nucleic acid)
chain: CTACCTACGATCTGACTAGCTTGGTAGCGACTCTGTGGAGCTGCGGTCTGGTCGACGTCAGCTTACTCTCATGTAGTTCC
modifications: DNA, backbone not given here
notes: DNA SELEX 2 aptamer clone
As to B16, the “Screen Rabbit/No Protein” value in series [2] was 1.88. For the same molecule, the “Screen- Human/No Protein” value in series [3] was determined as 1.66.

B17: AMX237.C9: DNA SELEX 2 aptamer clone (nucleic acid)
DNA: CTACCTACGATCTGACTAGCTTGGTAGTGACTTTGTGGAGCTGCGGTTTGGTCGACGTCAGCTTACTCTCATGTAGTTCC
modifications: DNA, backbone not given here
notes: DNA SELEX 2 aptamer clone
For B17, the “Screen Rabbit/No Protein” value in series [2] came to 2.19. The “Screen- Human/No Protein” value in series [3] is reported as 2.05.

Usually Kd stands for the equilibrium constant for the complex coming apart.
